This note sets out measurements from US20120021995A1 (published 2012).

Residue numbers refer to the chain shown, from its start.

First the molecules themselves.
B1: 119p94P1H10 (designed binder)
chain: ALQTVCLKGTKVHMKCFLAFTQTKTFHEASEDCISRGGTLSTPQTGSENDALYEYLRQSVGNEAEIWLGLNGWLEGVGWVDMTGARIAYKNWSTAQNGQPDGGWPFSNENCAVLSGAANGKWFDKRCRDQLPYICQFGIV
notes: on phage
B2: 119p83P1H4 (designed binder)
chain: EPPTQKPKKIVNAKKDVVNTKMFEELKSRLDTLAQEVALLKEQQALQTVCLKGTKVHMKCFLAFTQTKTFHEASEDCISRGGTLSTPQTGSENDALYEYLRQSVGNEAEIWLGLNGWLEGVGWVDMTGARIAYKNWSKVRLEQPDGGWPFSNENCAVLSGAANGKWFDKRCRDQLPYICQFGIV
notes: ATRIMER from pANA19
B3: 119p94P1B4 (designed binder)
chain: B2 chain with S137A, K138E, R140P, L141F, E142F
notes: ATRIMER from pANA19
B4: 119p83P1H1 (designed binder)
chain: B2 chain with S137T, K138Q, V139R, R140H, L141S, E142G
notes: ATRIMER from pANA19
B5: 119p94P1G7 (designed binder)
chain: B2 chain with S137G, K138W, V139S, R140A, L141R, E142V
notes: ATRIMER from pANA19
B6: 119p94P1B5 (designed binder)
chain: B2 chain with S137A, K138R, V139H, R140I, L141N
notes: ATRIMER from pANA19
B7: 119p94P1F4 (designed binder)
chain: B2 chain with S137A, K138A, R140T, L141M
notes: ATRIMER from pANA19
B8: 119p94P1C1 (designed binder)
chain: B2 chain with S137A, K138I, V139S, R140D, L141E, E142R
notes: ATRIMER from pANA19
B9: 119p94P1D8 (designed binder)
chain: B2 chain with S137G, K138W, V139M, R140D, L141S, E142K
notes: ATRIMER from pANA19
B10: 71p88P1A3 (designed binder)
chain: EPPTQKPKKIVNAKKDVVNTKMFEELKSRLDTLAQEVALLKEQQALQTVCLKGTKVHMKCFLAFTQTKTFHEASEDCISRGGTLSTPQTGSENDALYEYLRQSVGNEAEIWLGLNGYLAGTGWVDMTGARIAYKNWETEITAQPDGGRVLAWENCAVLSGAANGKWFDKRCRDQLPYICQFGIV
B11: 71p88P1F2 (designed binder)
chain: B10 chain with Y117W, A119E, T121S, R148F, V149P, L150A, A151R
B12: 71p88P1B3 (designed binder)
chain: B10 chain with Y117W, A119E, T121S, R148V, V149Q, L150W, A151R
B13: 71p88P1G1 (designed binder)
chain: B10 chain with Y117W, L118M, A119E, T121V, R148P, V149P, L150W, A151R
B14: 029-15.B3D (designed binder)
chain: EPPTQKPKKIVNAKKDVVNTKMFEELKSRLDTLAQEVALLKEQQALQTVCLKGTKVHMKCFLAFTQTKTFHEASEDCISRGGTLSTPQTGSENDALYEYLRQSVGNEAEIWLGLNELRTDGLWVDMTGARIAYKNWETEITAQPDGGVMRRSENCAVLSGAANGKWFDKRCRDQLPYICQFGIV
notes: ATRIMER; also called 9b3d
B15: 029-15.B9F (designed binder)
chain: B14 chain with E116K, L117R, R118V, T119W, D120Y, G121R, L122G, V148M, M149R, S152R
notes: ATRIMER; also called 2a1a
B16: 142p72P1C9 (designed binder)
chain: EPPTQKPKKIVNAKKDVVNTKMFEELKSRLDTLAQEVALLKEQQALQTVCLKGTKVHMKCFLAFTQTKTFHEASEDCISRGGTLSTPQTGSENDALYEYLRQSVGNEAEIWLGLNGWLEGSGWVDMTGARIAYKNWGDPRWSQPDGGVQWRWENCAVLSGAANGKWFDKRCRDQLPYICQFGIV
B17: 142p62P1G2 (designed binder)
chain: B16 chain with G137A, P139E, W141F, S142L
B18: 142p62P1A2 (designed binder)
chain: B16 chain with P139Q, W141L, S142A
B19: 65p114P1B2 (designed binder)
chain: B16 chain with G137F, D138H, P139D, W141F, S142N
B20: 65p114P1A3 (designed binder)
chain: B16 chain with G137A, R140K
B21: 014-42.3B8 (designed binder)
chain: B10 chain with Y117W, A119E, T121V, R148E, V149H, L150W, A151G
notes: ATRIMER; also called 14p42P3B8
B22: 014-42.3D10 (designed binder)
chain: B10 chain with A119E, T121Y, R148A, V149T, L150I
notes: ATRIMER
B23: 014-42.3D11 (designed binder)
chain: B10 chain with Y117W, A119E, T121A, R148W, V149H, L150W, A151R
notes: ATRIMER

The target of the first experiment is T1, recombinant human TRAIL R1 (DR4)/Fc chimera (human, UniProt O00220 24-239).
T1 construct: bought (R&D Systems); not shown: Fc of the bought chimera (R&D Systems)
T1 sequence: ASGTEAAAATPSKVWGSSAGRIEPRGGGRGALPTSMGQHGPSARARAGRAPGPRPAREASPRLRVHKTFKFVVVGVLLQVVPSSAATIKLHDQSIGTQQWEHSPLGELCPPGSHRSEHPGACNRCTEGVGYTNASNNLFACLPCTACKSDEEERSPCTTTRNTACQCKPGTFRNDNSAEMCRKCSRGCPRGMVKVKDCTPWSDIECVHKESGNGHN
As to the kind of experiment: phage ELISA on DR4/Fc. In general terms: An ELISA detects its analyte on a solid surface through an enzyme-linked reagent.
For the molecule B1, the binding result was “binds”.

For the next experiment, the target named is T2, DR4 (TRAIL-R1) on cancer cells (human, UniProt O00220 24-468).
T2 sequence: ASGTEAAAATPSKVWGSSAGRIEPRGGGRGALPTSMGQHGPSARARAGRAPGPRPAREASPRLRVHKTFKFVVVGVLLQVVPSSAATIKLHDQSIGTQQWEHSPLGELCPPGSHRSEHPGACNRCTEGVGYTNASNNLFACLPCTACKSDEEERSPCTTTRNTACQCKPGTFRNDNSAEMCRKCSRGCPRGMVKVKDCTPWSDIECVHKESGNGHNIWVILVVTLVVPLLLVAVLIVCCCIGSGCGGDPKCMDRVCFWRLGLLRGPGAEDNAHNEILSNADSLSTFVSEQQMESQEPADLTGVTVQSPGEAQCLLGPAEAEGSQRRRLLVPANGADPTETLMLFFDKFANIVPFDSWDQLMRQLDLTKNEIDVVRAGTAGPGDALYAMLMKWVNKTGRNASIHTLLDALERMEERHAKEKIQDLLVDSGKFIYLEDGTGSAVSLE
Kind of experiment: cell-based or functional assay.
In the case of B2, the “ED50 (nM) ST486 (cell killing)” value is 0.13 nM.

Take B3: the “ED50 (nM) ST486 (cell killing)” value came to 127 nM.

Consider B4, for which the “ED50 (nM) ST486 (cell killing)” value is 13 nM.

Take B5: the “ED50 (nM) ST486 (cell killing)” value is 25.5 nM.

Regarding B6, the “ED50 (nM) ST486 (cell killing)” value was 6.6 nM.

On to B7, for which the “ED50 (nM) ST486 (cell killing)” value worked out at 308 nM.

For the molecule B8, the “ED50 (nM) ST486 (cell killing)” value stood at 251 nM.

Turning to B9, the “ED50 (nM) ST486 (cell killing)” value is 30.5 nM.

The target in another experiment is T2, DR4 (TRAIL-R1) on cancer cells. As to the kind of experiment: cell-based or functional assay. The source holds these as a separate data set.
Consider B10, for which the “Colo205 % killing (% of TRAIL activity)” value was -7%, the “H2122 % killing (% of TRAIL activity)” value is -3% and the “ST486 % killing (% of TRAIL activity)” value is 41%.

For the molecule B11, the “Colo205 % killing (% of TRAIL activity)” value was -18%, the “H2122 % killing (% of TRAIL activity)” value is -5% and the “ST486 % killing (% of TRAIL activity)” value worked out at 58%.

With B12, the “Colo205 % killing (% of TRAIL activity)” value amounted to 42%, the “H2122 % killing (% of TRAIL activity)” value was determined as 0% and the “ST486 % killing (% of TRAIL activity)” value came out at 88%.

Consider B13, for which the “Colo205 % killing (% of TRAIL activity)” value is 12%, the “H2122 % killing (% of TRAIL activity)” value is 0% and the “ST486 % killing (% of TRAIL activity)” value stood at 78%.

Another experiment deals with T1, recombinant human TRAIL R1 (DR4)/Fc …. Kind of experiment: SPR (Biacore), ATRIMER. The procedure:
(§1) Immobilization of an anti-human IgG Fc antibody (Biacore) to the CM5 chip (Biacore) was performed using standard amine coupling chemistry and this surface was used to capture recombinant human DR4 or DR5 receptor Fc fusion protein (R&D Systems). ATRIMER™ dilutions (1-500 nM) were injected over the DR4 and DR5 receptor surface at 30 μl/min and kinetic constants were derived from the sensorgram data using the Biaevaluation software (version 3.1, Biacore). Data collection was 3 minutes for the association and 5 minutes for dissociation. The anti-human IgG surface was regenerated with a 30 s pulse of 3 M magnesium chloride. All sensorgrams were double-referenced against an activated and blocked flow-cell as well as buffer injections.
Clones were then sub-cloned into pANA19 for expression and purification as described above. Cell killing activity was measured as described above, and binding affinity was measured by Biacore.
(SPR reads the build-up and loss of mass on a sensor chip optically.)
For B2, the Kd was 0.16 nM, the koff is 2.21e-05 s⁻¹ and the kon amounted to 138000 M⁻¹ s⁻¹.

Consider B3, for which the Kd is 2.82 nM, the koff was 0.00052 s⁻¹ and the kon came out at 185000 M⁻¹ s⁻¹.

As to B4, the Kd worked out at 1.42 nM, the koff was 0.000329 s⁻¹ and the kon came to 221000 M⁻¹ s⁻¹.

As to B5, the Kd was 2.41 nM, the koff was 0.0007 s⁻¹ and the kon stood at 349000 M⁻¹ s⁻¹.

For the molecule B6, the Kd came to 1.11 nM, the koff is 0.000406 s⁻¹ and the kon worked out at 360000 M⁻¹ s⁻¹.

In the case of B7, the Kd amounted to 2.96 nM, the koff is 0.000892 s⁻¹ and the kon worked out at 125000 M⁻¹ s⁻¹.

Take B8: the Kd worked out at 1.85 nM, the koff stood at 0.000571 s⁻¹ and the kon was found to be 141000 M⁻¹ s⁻¹.

Regarding B9, the Kd was found to be 1.31 nM, the koff stood at 0.000542 s⁻¹ and the kon was 400000 M⁻¹ s⁻¹.

The next experiment deals with T2, DR4 (TRAIL-R1) on cancer cells. As to the kind of experiment: cell-based or functional assay. This is another data set of the same source.
Consider B10, for which the “ED50 ST486 (cell killing)” value is 170 nM.

B11: the “ED50 ST486 (cell killing)” value turned out to be 168 nM.

As to B12, the “ED50 ST486 (cell killing)” value came to 3.2 nM.

For the molecule B13, the “ED50 ST486 (cell killing)” value is 80 nM.

The target of a further experiment is T3, recombinant human TRAIL R2 (DR5)/Fc chimera (human, UniProt O14763 54-182).
T3 construct: bought (R&D Systems); not shown: Fc of the bought chimera (R&D Systems)
Kind of experiment: SPR (Biacore), DR5-Fc captured by anti-Fc, ATRIMER analyte; apparent. As to the method:
as §1
As for B14, the Ka was found to be 1.11e+06 M⁻¹, the Kd came out at 899 nM, the koff was determined as 0.000104 s⁻¹ and the kon stood at 116 M⁻¹ s⁻¹.

On to B15, for which the Ka was 2.38e+07 M⁻¹, the Kd was 42.8 nM, the koff was 0.00184 s⁻¹ and the kon stood at 43800 M⁻¹ s⁻¹.

In the next experiment the target is T2, DR4 (TRAIL-R1) on cancer cells. Kind of experiment: cell-based or functional assay. The source holds these as a separate data set.
Consider B16, for which the “EC50 Colo205 (cell killing)” value was determined as 0.18 nM and the “EC50 ST486 (cell killing)” value was 0.03 nM.

As for B17, the “EC50 Colo205 (cell killing)” value was 0.32 nM and the “EC50 ST486 (cell killing)” value was found to be 0.2 nM.

B18: the “EC50 Colo205 (cell killing)” value was determined as 0.39 nM and the “EC50 ST486 (cell killing)” value is 0.3 nM.

Consider B19, for which the “EC50 Colo205 (cell killing)” value stood at 0.18 nM and the “EC50 ST486 (cell killing)” value worked out at 0.09 nM.

On to B20, for which the “EC50 Colo205 (cell killing)” value came to 0.11 nM and the “EC50 ST486 (cell killing)” value came out at 0.05 nM.

For a further experiment, the target named is T1, recombinant human TRAIL R1 (DR4)/Fc …. As to the kind of experiment: SPR (Biacore), DR4-Fc captured by anti-Fc, ATRIMER analyte; apparent. As to the method: as §1
Take B21: the Ka worked out at 1.11e+08 M⁻¹, the Kd came out at 9.01 nM, the koff came to 0.00101 s⁻¹ and the kon was 112000 M⁻¹ s⁻¹.

On to B22, for which the Ka was 6.58e+06 M⁻¹, the Kd worked out at 152 nM, the koff is 0.00185 s⁻¹ and the kon is 12200 M⁻¹ s⁻¹.

For the molecule B23, the Ka is 2.53e+07 M⁻¹, the Kd is 39.5 nM, the koff came to 0.000526 s⁻¹ and the kon came out at 13300 M⁻¹ s⁻¹.

As a reminder, the koff is the first-order rate constant of dissociation. What is called kon is a measure of how fast the partners come together.
